# Assay results from article PMC5880808, “A lever-like transduction pathway for long-distance chemical- and mechano-gating of the mechanosensitive Piezo1 channel” (Nature Communications, 2018).
# Experiments:
# Experiment in all cases: SEC; Superose-6 10/300 GL (FPLC) in 25 mM Na-PIPES pH 7.2, 140 mM NaCl, 2 mM DTT, 0.026% C12E10; oligomeric state judged from the peak position against wild-type mPiezo1
# [1] = molecular target: mPiezo1-ΔL15-16 (657-677) (mouse) (UniProt E2JF22)
# [2] = molecular target: mPiezo1-ΔL19-20 (870–921) (mouse) (UniProt E2JF22)
# mouse Piezo1 (mouse) = mouse Piezo1 (mouse) (UniProt E2JF22); conditions: remark: other sources report otherwise
substance,measurement,setting,value
"mPiezo1-ΔL15-16 (657-677), E2JF22 1-656; E2JF22 678-2547",stoichiometry N,[1],3
"mPiezo1-ΔL19-20 (870–921), E2JF22 1-869; E2JF22 922-2547",stoichiometry N,[2],3
"mouse Piezo1, E2JF22 1-2547",stoichiometry N,mouse Piezo1 (mouse),3
